From IntAct's records for PubMed 15774581

B1: Krueppel-like factor 11 (Homo sapiens), O14901 (parent)
chain: MHTPDFAGPDDARAVDIMDICESILERKRHDSERSTCSILEQTDMEAVEALVCMSSWGQRSQKGDLLRIRPLTPVSDSGDVTTTVHMDAATPELPKDFHSLSTLCITPPQSPDLVEPSTRTPVSPQVTDSKACTATDVLQSSAVVARALSGGAERGLLGLEPVPSSPCRAKGTSVIRHTGESPAACFPTIQTPDCRLSDSREGEEQLLGHFETLQDTHLTDSLLSTNLVSCQPCLHKSGGLLLTDKGQQAGWPGAVQTCSPKNYENDLPRKTTPLISVSVPAPPVLCQMIPVTGQSSMLPAFLKPPPQLSVGTVRPILAQAAPAPQPVFVGPAVPQGAVMLVLPQGALPPPAPCAANVMAAGNTKLLPLAPAPVFITSSQNCVPQVDFSRRRNYVCSFPGCRKTYFKSSHLKAHLRTHTGEKPFNCSWDGCDKKFARSDELSRHRRTHTGEKKFVCPVCDRRFMRSDHLTKHARRHMTTKKIPGWQAEVGKLNRIASAESPGSPLVSMPASA
partner: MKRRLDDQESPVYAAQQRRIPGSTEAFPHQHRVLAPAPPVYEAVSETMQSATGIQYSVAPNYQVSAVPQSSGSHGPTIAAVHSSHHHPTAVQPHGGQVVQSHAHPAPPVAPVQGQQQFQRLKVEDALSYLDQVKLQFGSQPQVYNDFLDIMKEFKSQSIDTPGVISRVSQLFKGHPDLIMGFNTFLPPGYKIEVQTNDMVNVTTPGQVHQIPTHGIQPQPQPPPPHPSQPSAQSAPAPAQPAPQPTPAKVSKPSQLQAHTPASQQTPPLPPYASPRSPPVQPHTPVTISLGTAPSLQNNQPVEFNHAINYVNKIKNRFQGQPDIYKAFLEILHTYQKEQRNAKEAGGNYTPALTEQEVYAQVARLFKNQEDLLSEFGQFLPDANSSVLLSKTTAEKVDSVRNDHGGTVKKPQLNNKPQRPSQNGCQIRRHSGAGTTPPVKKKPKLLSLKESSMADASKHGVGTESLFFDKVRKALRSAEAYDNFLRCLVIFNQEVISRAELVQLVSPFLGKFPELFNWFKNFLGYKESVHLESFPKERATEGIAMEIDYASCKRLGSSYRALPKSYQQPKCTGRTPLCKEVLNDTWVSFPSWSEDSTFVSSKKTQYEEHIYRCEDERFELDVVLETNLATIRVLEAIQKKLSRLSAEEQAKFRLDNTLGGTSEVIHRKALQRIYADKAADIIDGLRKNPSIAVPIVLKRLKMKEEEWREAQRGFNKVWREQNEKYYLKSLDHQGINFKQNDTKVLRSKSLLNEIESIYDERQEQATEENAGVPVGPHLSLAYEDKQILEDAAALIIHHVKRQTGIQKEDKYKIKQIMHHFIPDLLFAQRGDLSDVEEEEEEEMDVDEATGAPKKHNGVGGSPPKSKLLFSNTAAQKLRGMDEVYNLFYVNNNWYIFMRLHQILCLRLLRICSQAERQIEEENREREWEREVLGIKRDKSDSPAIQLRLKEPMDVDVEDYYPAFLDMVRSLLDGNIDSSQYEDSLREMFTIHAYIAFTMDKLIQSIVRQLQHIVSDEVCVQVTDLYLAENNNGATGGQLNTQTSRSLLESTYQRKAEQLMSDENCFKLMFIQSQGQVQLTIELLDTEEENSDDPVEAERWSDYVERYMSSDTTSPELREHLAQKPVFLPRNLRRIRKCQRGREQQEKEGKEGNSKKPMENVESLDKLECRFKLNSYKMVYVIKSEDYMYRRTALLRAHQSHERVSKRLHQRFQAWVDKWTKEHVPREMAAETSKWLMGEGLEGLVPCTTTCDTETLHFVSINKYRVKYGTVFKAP

Variants of: B1
Conditions: with Sin3a

effect of a mutation on the interaction	Variant
increasing interaction	Q62R
